The chains are these.
B1: Bik1 (natural protein, S. cerevisiae, UniProt P11709 1-440, looked up)
chain: MDRYQRKIGCFIQIPNLGRGQLKYVGPVDTKAGMFAGVDLLANIGKNDGSFMGKKYFQTEYPQSGLFIQLQKVASLIEKASISQTSRRTTMEPLSIPKNRSIVRLTNQFSPMDDPKSPTPMRSFRITSRHSGNQQSMDQEASDHHQQQEFGYDNREDRMEVDSILSSDRKANHNTTSDWKPDNGHMNDLNSSEVTIELREAQLTIEKLQRKQLHYKRLLDDQRMVLEEVQPTFDRYEATIQEREKEIDHLKQQLELERRQQAKQKQFFDAENEQLLAVVSQLHEEIKENEERNLSHNQPTGANEDVELLKKQLEQLRNIEDQFELHKTKWAKEREQLKMHNDSLSKEYQNLSKELFLTKPQDSSSEEVASLTKKLEEANEKIKQLEQAQAQTAVESLPIFDPPAPVDTTAGRQQWCEHCDTMGHNTAECPHHNPDNQQFF
notes: Bik1 (Clip170 homolog), S. cerevisiae; open-reading frame amplified from genomic DNA; Eluted from Ni-NTA with imidazole; no removal of the tag is told; also called Clip170 homolog; source: sf21 insect cells (baculovirus), purified (Ni-NTA)
B3: Bik1ΔC (domain or fragment, S. cerevisiae, UniProt P11709 1-400, looked up)
chain: MDRYQRKIGCFIQIPNLGRGQLKYVGPVDTKAGMFAGVDLLANIGKNDGSFMGKKYFQTEYPQSGLFIQLQKVASLIEKASISQTSRRTTMEPLSIPKNRSIVRLTNQFSPMDDPKSPTPMRSFRITSRHSGNQQSMDQEASDHHQQQEFGYDNREDRMEVDSILSSDRKANHNTTSDWKPDNGHMNDLNSSEVTIELREAQLTIEKLQRKQLHYKRLLDDQRMVLEEVQPTFDRYEATIQEREKEIDHLKQQLELERRQQAKQKQFFDAENEQLLAVVSQLHEEIKENEERNLSHNQPTGANEDVELLKKQLEQLRNIEDQFELHKTKWAKEREQLKMHNDSLSKEYQNLSKELFLTKPQDSSSEEVASLTKKLEEANEKIKQLEQAQAQTAVESLPIF
notes: Bik1 (Clip170 homolog), S. cerevisiae, lacking the C-terminal 40 amino acids (zinc knuckle domain); also called Bik1ΔC construct lacking the C-terminal 40 amino acids; source: sf21 insect cells (baculovirus), purified (Ni-NTA)

The target in assay [1] is Kip2 (S. cerevisiae) (UniProt P28743).
In assay [2] the target is T1, Kip2 (S. cerevisiae, UniProt P28743 1-706, differently phosphorylated forms (doublet on SDS-PAGE; not treated with phosphatase); Atto647N on the SNAP tag in the TIRF assays).
T1 construct: kinesin Kip2, S. cerevisiae; genomic kip2 locus modified by homologous recombination (8HIS-ZZ-Tev-KIP2-g-FLAG-ga-SNAP); also called Kip2-Atto647; kinesin; source: S. cerevisiae (strain RPY1099, GAL1 promoter), purified (IgG sepharose via ZZ tag, TEV release; for SEC Ni-NTA then IgG sepharose); not shown: His8, N-terminal, cleaved; ZZ, N-terminal, cleaved; SNAP, C-terminal, kept
T1 sequence (looked up): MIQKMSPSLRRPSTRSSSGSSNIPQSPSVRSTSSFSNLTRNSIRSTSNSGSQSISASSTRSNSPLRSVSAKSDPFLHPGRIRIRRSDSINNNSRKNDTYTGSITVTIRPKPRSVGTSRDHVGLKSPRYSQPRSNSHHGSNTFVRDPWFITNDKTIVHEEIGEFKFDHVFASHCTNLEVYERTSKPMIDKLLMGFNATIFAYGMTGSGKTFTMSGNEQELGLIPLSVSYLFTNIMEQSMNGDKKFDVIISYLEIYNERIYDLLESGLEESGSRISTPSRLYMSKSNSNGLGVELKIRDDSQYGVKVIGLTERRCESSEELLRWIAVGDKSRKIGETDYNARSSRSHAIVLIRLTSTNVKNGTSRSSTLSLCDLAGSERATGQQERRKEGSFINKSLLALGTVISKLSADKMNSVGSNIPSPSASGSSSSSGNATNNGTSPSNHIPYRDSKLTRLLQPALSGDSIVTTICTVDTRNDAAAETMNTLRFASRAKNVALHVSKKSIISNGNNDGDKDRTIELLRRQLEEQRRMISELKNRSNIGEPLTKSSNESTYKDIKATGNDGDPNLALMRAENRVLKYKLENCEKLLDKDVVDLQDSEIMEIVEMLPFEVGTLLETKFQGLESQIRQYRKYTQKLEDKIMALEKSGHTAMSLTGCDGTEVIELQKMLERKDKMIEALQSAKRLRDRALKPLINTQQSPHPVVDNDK
The assay is described as follows: SEC; Superose 6 PC 3.2/30; indicated combinations of purified protein (100 picomoles each) pre-incubated at 1.1 μM for 10 min at 4°C; 50 mM Tris-HCl pH 8.0, 150 mM potassium acetate, 2 mM magnesium acetate, 1 mM EGTA, 5% glycerol, 1 mM DTT; fractions analysed by SDS-PAGE. Particulars: both partners purified.

The target of assay [3] is B1. The assay is described as above. The settings on record: both partners purified.
The target of assay [4] is B3. The description is as above. Particulars: both partners purified.

For the molecule GST-dynein_(331 kDa), P36022 1-4092, in assay [1], the direction of dynein movements on dynamic microtubules (TIRF) with Lis1, Bik1, Bim1 and Kip2: proportion directed to the plus end; without Lis1 or Bik1 dynein moved to the minus end was found to be 90%.

For B1, the binding result in assay [2] is “binds”.

B2: Bim1 (natural protein, S. cerevisiae, UniProt P40013 1-344, looked up)
chain: MSAGIGESRTELLTWLNGLLNLNYKKIEECGTGAAYCQIMDSIYGDLPMNRVKFNATAEYEFQTNYKILQSCFSRHGIEKTVYVDKLIRCKFQDNLEFLQWLKKHWIRHKDESVYDPDARRKYRPIITNNSATKPRTVSNPTTAKRSSSTGTGSAMSGGLATRHSSLGINGSRKTSVTQGQLVAIQAELTKSQETIGSLNEEIEQYKGTVSTLEIEREFYFNKLRDIEILVHTTQDLINEGVYKFNDETITGHGNGNGGALLRFVKKVESILYATAEGFEMNDGEDELNDKNLGEHGTVPNQGGYANSNGEVNGNEGSNHDVIMQNDEGEVGVSNNLIIDEETF
notes: Bim1 (EB1 homolog), S. cerevisiae; open-reading frame amplified from genomic DNA; also called EB1 homolog; source: E. coli BL-21(DE3), purified (Strep-Tactin, TEV release); not shown: His6, N-terminal, cleaved; Strep, N-terminal, cleaved
As for B2, the binding result in assay [3] and in assay [4] was “binds” throughout.

Regarding B3, the binding result in assay [2] is on record as “binds”.

These data come from PMC4046564, “Reconstitution of dynein transport to the microtubule plus end by kinesin” (eLife, 2014).
